Assay results taken from the supplement of paper PMC9170038.

Tested on: MS2 coat protein
Test: apparent KD of MS2 coat protein; designed switch direction (-1 OFF switch, 1 ON switch): -1; higher = weaker reporter binding
Method in brief: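 Transcription of designed RNA switches on Illumina chips was done by stalled E. coli RNA polymerase. SNAP-549-labelled MS2 coat protein was then titrated in doubling steps from 0.7 or 1.5 nM to 3 µM, with steps of 0.8–1.5 h at the lowest and 10–20 min at the highest concentration. The per-design median over clusters of curve-fitted normalised fluorescence is reported as apparent KD.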

[1] = Eterna round: R95, input ligand: FMN 200 uM
[2] = Eterna round: R95, input ligand: microRNA oligo, concentration not stated
[3] = Eterna round: R95, input ligand: none
[4] = input ligand: microRNA oligo, concentration not stated

| Sequence | apparent KD of MS2 coat protein [1] [nM] | apparent KD of MS2 coat protein [2] [nM] | apparent KD of MS2 coat protein [3] [nM] | apparent KD of MS2 coat protein (input ligand: FMN 200 uM) [nM] | apparent KD of MS2 coat protein (input ligand: none) [nM] | apparent KD of MS2 coat protein [4] [nM] |
| --- | --- | --- | --- | --- | --- | --- |
| AAAAAACAAGGAUAUACUAAGGAUGAUUAUCUUAAUUUUUGACAUGAGGAUCACCCAUGUAGAAGGUGUUAAAA [JR_Exclusion2_Sub007] (puzzle: Exclusion 2) | 98.9 | 47.5 | 41.2 |  |  |  |
| AAAAAGGUAGGAUAUCCACUUUAAAACAUGAGGAUCACCCAUGUAAAACCACAUGAAAAAGGAGAAGGACCAAAAA [AK-MS2ROC-r4-exclusion5-2] (Eterna round: R97, puzzle: Exclusion 5) |  |  |  | 24.7 | 26 |  |
| AAAACGUCAGGAUAUCCAAUAUAUGACAUGAGGAUCACCCAUGUUUCCACUCGUACCUCCGGAGAAGGGACUUAUA [Ex5 #83] (Eterna round: R97, puzzle: Exclusion 5) |  |  |  | 43.9 | 46.2 |  |
| AAAAGAUAAGGAUAUUGAAGGUUCGACAUGAGGAUCACCCAUGUUAUGUUGGAAAAGGGACAAGAAGGUAUGAAAG [salish99_ex5_r4_203] (Eterna round: R97, puzzle: Exclusion 5) |  |  |  | 31.5 | 41.8 |  |
| AAAAGGCUAGGAUAUACCAGUGGGUGUAAGAACUCAAAUUUACAUGAGGAUCACCCAUGUAGAAGGAGUAAAAU [Dilaed] (puzzle: Exclusion 2) |  | 19.5 |  |  |  |  |
| AAAAGGCUAGGAUAUCGCGGUAACAACAUGAGGAUCACCCAUGUGAAGGUGUCUUCUGCCCGAGAAGGAGCAGAGU [Tientixe] (puzzle: Exclusion 5) | 43.2 | 25.6 | 29.9 |  |  |  |
| AAAAGGUCAGGAUAUACAAGAAAAGAAAAGAAAAGAAAAGAGUAGAAGGGACAUGAGGAUCACCCAUGUAAAAG [Default title] (puzzle: Exclusion 4) | 30.6 | 45.8 | 35.1 |  |  |  |
| AAAAGGUGAGGAUAUGAGGCGCCGGGCCGGUUGGUGCGGAUUCAGAAGGCACAUGAGGAUCACCCAUGUAAUAA [Excls4-II] (puzzle: Exclusion 4) | 52.2 | 38.7 | 50.4 |  |  |  |
| AAACACUUAGGAUAUACAUGAGGAUCACCCAUGUCAGACAACGACUACACAAAGUCAUGUAGAAGGAAGUCAAG [Islarele] (puzzle: Exclusion 3) | 24.3 | 24.1 | 26 |  |  |  |
| AAACCCUGAGGAUAUACAUAACAACAAAUCCUCACGUGCCAACAUGAGGAUCACCCAUGUAGAAGGCAGGCCCA [Bigegedi] (puzzle: Exclusion 2) | 48.4 | 15.8 | 15.3 |  |  |  |
| AAACGCCGAGGAUAUACCCAACCAGUCCUCUAAAGAAGAAAACAUGAGGAUCACCCAUGUAGAAGGCGGUGCAA [Anorti] (Eterna round: R97, puzzle: Exclusion 2) |  |  |  | 51.8 | 28.1 |  |
| AAACGGCGGAUCGUGGCUUUUUGCUCGUCUUGUGCUUCAACAUGAGGAUCACCCAUGUAGUGGUGAUCCGUUGUAAA [Grok-var2-17 mod JAL] (puzzle: Sensor v3, turn-off variant 2) | 25.8 | 26.7 | 42.1 |  |  |  |
| AAACGGUAAGGAUAUCGGGCAACGGACAUGAGGAUCACCCAUGUGAACCUGCGUAUCCUCCGAGAAGGUACAAAAG [Diinbibe] (Eterna round: R97, puzzle: Exclusion 5) |  |  |  | 20 | 10.9 |  |
| AAAGCACAUGAGGAUCACCCAUGUGAGGAUAUACAGAAAAUCUCGUUUACGAGGACUCGUAGAAGGCGCAGUGC [Eternabot (L2) Solution 19] (Eterna round: R97, puzzle: Exclusion 1) |  |  |  | 20.9 | 21.3 |  |
| AAAUAACAAGCAAGAUCCUACAUGAGGAUCACCCAUGUGCUCGUCUUAUAAAGUACUAUCACGAAAGUGAUAGUACA [Sensor 3, v1 - 11] (puzzle: Sensor v3, turn-off variant 1) | 675 | 392 | 546 |  |  |  |
| AAAUAAUAGAUAAAAUAAUACAUGAGGAUCACCCAUGUGCGAUGUUGAGGGUGAUACAGGCUUUUUGCUCGUCUUAU (puzzle: Sensor v3, turn-off variant 1) | 177 | 20.5 | 67.9 |  |  |  |

| Sequence | apparent KD of MS2 coat protein [1] [nM] | apparent KD of MS2 coat protein [2] [nM] | apparent KD of MS2 coat protein [3] [nM] | apparent KD of MS2 coat protein (input ligand: FMN 200 uM) [nM] | apparent KD of MS2 coat protein (input ligand: none) [nM] | apparent KD of MS2 coat protein [4] [nM] |
| --- | --- | --- | --- | --- | --- | --- |
| AAAUACAAGCAAAGAUCCUACAUGAGGAUCACCCAUGUGCUCGUCUUGUAAAGUACUAUCACGAAAGUGAUAGUACA [Sensor 3, v1 - 16] (puzzle: Sensor v3, turn-off variant 1) | 51.9 | 27.5 | 70.2 |  |  |  |
| AAAUACAGGUAAAGAUUCUACAUGAGGAUCACCCAUGUGCUCGUCUUAUAAAGUACUAUCACGAAAGUGAUAGUACA [Sensor 3, v1 - 40] (puzzle: Sensor v3, turn-off variant 1) | 25.9 | 169 | 21.6 |  |  |  |
| AAAUACCGGUGAGGAUAUUUAUAAUAGAGCUUUAUGAUAUACAUGAGGAUCACCCAUGUUACUUUAAAGAAGGCAUCGGAAUAA [Mat - Exclusion NG 2 - Mod of JL - D93] (Eterna round: R96, puzzle: Exclusion NG 2) |  |  |  | 15.4 | 18.9 | 13.9 |
| AAAUAGCUAGAGGAUAUUGGAUAGGAUUUAGUACGAGAAGGUUAGACAUGAGGAUCACCCAUGUUGUGUUGGGA [EX6 #16] (Eterna round: R97, puzzle: Exclusion 6) |  |  |  | 49.2 | 52.9 |  |
| AAAUCCGCUGAGGAUAUGAUGACUGAGAGGUCAUCAGAAGGCGGUACAUGAGGAUCACCCAUGUCUAUGGGCAA [Ex-6 Malc#29] (puzzle: Exclusion 6) | 313 | 317 | 636 |  |  |  |
| AAAUCCGCUGAGGAUAUUAUGAGUGAGAGCUCAUGAGAAGGCGGUACAUGAGGAUCACCCAUGUCUAUGGGCAA [Ex-6 Malc#26] (puzzle: Exclusion 6) |  | 329 |  |  |  |  |
| AAAUCUCACGUGAGGAUAUCCUGGGCAACGUCCACGGAGAAGGCACAUGAGGAUCACCCAUGUGUUCGCAAUAC [Brourd's mod of Exclusion 4 (MOD2 of Nando's BmEX4 C.1)] (Eterna round: R97, puzzle: Brourd's mod of Exclusion 4) |  |  |  | 22.3 | 17.9 |  |
| AAAUGAUGUCAGGAUAUUGACGUUAAAAGAACGCAAGAAGGGACAACAUGAGGAUCACCCAUGUGGUCCUAUAA [Bira] (puzzle: Exclusion 6) |  | 13 |  |  |  |  |
| AAAUUAAGUGUGAGGAUAUGCUGGUCCUUGGAUCAGCAGAAGGCACAUGAGGAUCACCCAUGUAAUAUAUUUAA [Mat - Exclusion 4 - JL Mod - D49] (puzzle: Brourd's mod of Exclusion 4) | 439 | 74.2 | 144 |  |  |  |
| AAAUUCUGAGGAUAUCGAUGUUUGUACAUGAGGAUCACCCAUGUCCUUUUUAUUUAAUCCCGAGAAGGCAGUGUAU [JR_E5_Sub098] (puzzle: Exclusion 5) |  | 32.6 |  |  |  |  |
| AACAAAACGCGAGGAUAUCGCCAACAUGAGGAUCACCCAUGUCACGGGUGCAAAUGUCUUCUAGGCGAGAAGGCGCAUCCAUAC [Diatza] (Eterna round: R96, puzzle: Exclusion NG 2) |  |  |  | 704 | 641 | 344 |
| AACAAGCUUUUAAGAUCCUACAUGAGGAUCACCCAUGUGCUCGUCUUGUAACGUACUGUGACGAAAGUCACGGUACG [JL TOV1 3.29] (Eterna round: R97, puzzle: Sensor, turn-off variant 1) |  |  |  | 233 | 182 |  |
| AACACGGCAGGAUAUACUUGAGGAUCACCCAAGUUGUUCGCAACAUAAAAUAACUCUUGUAGAAGGGCCAAAAG [Isorbi] (Eterna round: R97, puzzle: Exclusion 3) |  |  |  | 220 | 33.6 |  |
| AACAGUACAGGAUAUACAUGAGGAUCACCCAUGUGAAGAAUAAGUGGAGUACCACAAAGUAGAAGGGUACUGGA [Ruby 88] (Eterna round: R96, puzzle: Exclusion 3) |  |  |  |  |  | 21.5 |
| AACCUAAUGCGAGGAUAUACUGAGACGUACAGUCGUCAGACAUGAGGAUCACCCAUGUACGCCUCGUAGAAGGCGCGUGACUAA [Bearareus] (Eterna round: R96, puzzle: Exclusion NG 2) |  |  |  | 32.6 | 16.8 | 13.4 |
